Source: patent publication US20250171549A1
Where “and” joins values, the source holds several entries; their conditions need not be identical. Equal entries are not always repeated.

Legend:
[1] = biological target: cynomolgus monkey CCR8 (comprising threonine at position four) (cynomolgus monkey); assay: KinExA, 293T cells expressing cynomolgus CCR8
[2] = biological target: cynomolgus monkey CCR8 (comprising threonine at position four) (cynomolgus monkey); assay: flow cytometry, primary cynomolgus Tregs (PBMC, CD4+CD25+CD127- gate)

cynomolgus monkey CCR8 (comprising threonine at position four) (cynomolgus monkey), sequence (O97665 other isoform, or with tags, fused parts or gaps): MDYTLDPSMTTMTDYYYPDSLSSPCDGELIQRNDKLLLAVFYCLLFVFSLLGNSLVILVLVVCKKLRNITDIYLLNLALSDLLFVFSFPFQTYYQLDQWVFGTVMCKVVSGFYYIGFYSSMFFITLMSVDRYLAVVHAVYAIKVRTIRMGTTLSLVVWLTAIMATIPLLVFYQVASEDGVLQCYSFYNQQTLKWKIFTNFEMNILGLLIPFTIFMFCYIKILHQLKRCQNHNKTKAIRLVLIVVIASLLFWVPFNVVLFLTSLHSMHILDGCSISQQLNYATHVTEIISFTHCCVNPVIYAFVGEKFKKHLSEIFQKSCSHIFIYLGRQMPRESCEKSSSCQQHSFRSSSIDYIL

B1: Antibody 2 IgG2 (antibody, V domains shown)
VH: QVQLVESGGGVVQPGRSLRLSCAASGFTFSNYGMHWVRQAPGKGLEWVAVISYDGSNKFYADSVKGRFTISRDNSKKTLYLQMSSLRVEDTAVYYCARAGGIGRFDYWGQGTLVTVSS
VL: DFVMTQTPLSLSVTPGQPASISCKYSQSLLHSDGKTYLFWYLQKPGQPPHLLIYEVSNRFSGVPDRFSGSGSGTDFTLKISRVEAEDVGLYYCMQTLKLPLTFGGGTKVEINR
Kd [1]: > 50 nM | CCR8+CD127-CD25+CD4, % positive [2]: 8.5% and 17.9%
